We go through two substances from patent publication US20040235112.

Data set [1] addresses GST-p38 (UniProt Q16539).
For data set [2], the target named is T1, GST-ATF2 (UniProt P15336).
T1 sequence: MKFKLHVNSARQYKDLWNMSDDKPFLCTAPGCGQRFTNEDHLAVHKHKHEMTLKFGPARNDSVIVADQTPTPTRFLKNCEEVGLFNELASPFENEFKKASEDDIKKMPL

The test system of data set [3] is His-ERK1[K52R].
The target of data set [4] is GST-JNK2 (UniProt P45984).
The subject of data set [5] is GST [GST: P08515].
The target of data set [6] is GST-cJun(1-79) (UniProt P05412).
GST-cJun(1-79), sequence (P05412 1-79): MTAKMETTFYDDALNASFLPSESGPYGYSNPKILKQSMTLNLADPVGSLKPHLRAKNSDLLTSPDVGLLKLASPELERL

GST-p38, sequence (Q16539 whole entry): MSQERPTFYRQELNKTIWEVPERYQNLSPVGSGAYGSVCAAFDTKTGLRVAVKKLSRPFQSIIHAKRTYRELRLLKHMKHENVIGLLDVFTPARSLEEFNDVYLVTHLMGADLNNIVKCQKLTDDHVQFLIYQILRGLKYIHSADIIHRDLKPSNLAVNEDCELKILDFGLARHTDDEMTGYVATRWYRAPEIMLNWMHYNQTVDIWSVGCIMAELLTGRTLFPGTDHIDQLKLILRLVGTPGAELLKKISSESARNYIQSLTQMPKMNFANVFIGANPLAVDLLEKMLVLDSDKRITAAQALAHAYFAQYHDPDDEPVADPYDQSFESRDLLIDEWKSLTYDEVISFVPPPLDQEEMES
GST [GST: P08515], sequence (P08515 whole entry): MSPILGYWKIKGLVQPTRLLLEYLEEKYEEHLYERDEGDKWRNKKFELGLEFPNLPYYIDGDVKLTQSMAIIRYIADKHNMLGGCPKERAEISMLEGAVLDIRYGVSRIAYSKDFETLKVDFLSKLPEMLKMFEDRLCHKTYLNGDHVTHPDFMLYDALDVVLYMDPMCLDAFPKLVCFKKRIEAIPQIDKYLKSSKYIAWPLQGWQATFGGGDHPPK

For 3xHA-MEK6, the “phosphorylation of GST-p38 in immune complex kinase assay (HeLa lysates, anti-HA 12CA5 immunoprecipitate)” value in data set [1] is listed as “MEK6 activation by anisomycin as measured by its ability to phosphorylate p38, was observed as early as 10 min after treatment”.
GST-MEK6: the “phosphorylation of GST-ATF2 in coupled in vitro kinase assay” value in data set [2] was “ATF2 was not directly phosphorylated by MEK6”. Also, the “phosphorylation of substrate in in vitro kinase assay ([γ-32P]ATP, SDS-PAGE, autoradiography)” value in data set [1], in data set [3], in data set [4] and in data set [5] was “MEK6 efficiently phosphorylated p38 but none of the other substrates” throughout. In data set [6], the “phosphorylation of GST-Jun(1-79) in coupled in vitro kinase assay” value was “MEK6 did not cause increased phosphorylation of Jun (GST-Jun(1-79) ...) either directly or in combination with JNK2”.
